We go through 13 molecules from article PMC6638984, “Increased association between Epstein-Barr virus EBNA2 from type 2 strains and the transcriptional repressor BS69 restricts EBNA2 activity” (PLoS Pathogens, 2019).

The term Kd denotes the concentration at which binding is half-saturated. The stoichiometry N is a count of units in the complex or per binding partner.

Changes are numbered by the printed parent chain. In names and notes the source's numbering stands.

First the molecules themselves.
T1: BS69 coiled-coil MYND domain (BS69_(CC-MYND), amino acids 480-602) (human, UniProt Q15326-1 480-602)
T1 construct: cloned into pET49b+; also called ZMYND11 CC-MYND; source: E. coli Rosetta 2 (DE3) pLysS, purified (HisPur cobalt resin, 3C protease cleavage, Superdex 75); not shown: GST, N-terminal, cleaved; His6, N-terminal, cleaved
T1 sequence (looked up): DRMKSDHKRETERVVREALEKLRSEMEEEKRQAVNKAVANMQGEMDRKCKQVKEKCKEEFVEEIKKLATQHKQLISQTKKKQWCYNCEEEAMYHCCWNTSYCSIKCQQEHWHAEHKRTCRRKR

B1: type 2 EBNA2 polypeptide T2 EBNA2_(348-422) (domain or fragment)
chain: SMPQLSPVVSLHQGQGPENSPTPGPSTAGPVCRVTPSATPDISPIHEPESSDSEEPPFLFPSDWYPPTLEPAELD
notes: EBNA2 of type 2 Epstein-Barr virus (AG876), amino acids 348-422 (motifs 1, 2 and 3), in pET47b+; also called T2 E2_(348-422); source: E. coli Rosetta 2 (DE3) pLysS, purified (HisPur cobalt resin, 3C protease cleavage, Superdex 75); not shown: His6, N-terminal, cleaved
B2: type 2 EBNA2 polypeptide T2 EBNA2_(348-422) (domain or fragment)
chain: B1 chain
notes: Monomer alone by SEC-MALS; also called T2 E2_(348-422); type 2 EBNA2_(348-422); source: E. coli Rosetta 2 (DE3) pLysS, purified (cobalt resin, 3C protease cleavage, Superdex 75); not shown: His6, N-terminal, cleaved
B3: T2 EBNA2_(348-422) motif 3 mt (PTLEP to ATAEA) (domain or fragment)
chain: B1 chain with P67A, L69A, P71A
notes: EBNA2 of type 2 Epstein-Barr virus (AG876), residues 348-422, with motif 3 mutated from PTLEP to ATAEA; also called T2 E2 m3 mt; source: E. coli Rosetta 2 (DE3) pLysS, purified (cobalt resin, 3C protease cleavage, Superdex 75); not shown: His6, N-terminal, cleaved
B4: T2 EBNA2_(348-422) m3 T1 (PTLEP to the type 1 sequence PSIDP) (domain or fragment)
chain: B1 chain with T68S, L69I, E70D
notes: source: E. coli Rosetta 2 (DE3) pLysS, purified (HisPur cobalt resin, 3C protease cleavage, Superdex 75); not shown: His6, N-terminal, cleaved
B5: EBNA2_(348-422) SD + m3 T1 (domain or fragment)
chain: B1 chain with S62D, T68S, L69I, E70D
notes: EBNA2 of type 2 Epstein-Barr virus (AG876), residues 348-422, with S409D and motif 3 PTLEP replaced by PSIDP; also called T2 EBNA2_(348-422) SD + m3 T1; type 2 EBNA2 double mutant (S409D, PTLEP to PSIDP); source: E. coli Rosetta 2 (DE3) pLysS, purified (cobalt resin, 3C protease cleavage, Superdex 75); not shown: His6, N-terminal, cleaved
B6: EBNA2_(348-422) SD + m3 mt (domain or fragment)
chain: B1 chain with S62D, P67A, L69A, P71A
notes: EBNA2 of type 2 Epstein-Barr virus (AG876), residues 348-422, with S409D and motif 3 PTLEP mutated to ATAEA; also called type 2 EBNA2 double mutant (S409D, PTLEP to ATAEA); source: E. coli Rosetta 2 (DE3) pLysS, purified (cobalt resin, 3C protease cleavage, Superdex 75); not shown: His6, N-terminal, cleaved
B7: T2 EBNA2_(348-422) SD mutant (S409D) (domain or fragment)
chain: B1 chain with S62D
notes: EBNA2 of type 2 Epstein-Barr virus (AG876), residues 348-422, serine to aspartate at position 409; text and methods say position 409; source: E. coli Rosetta 2 (DE3) pLysS, purified (cobalt resin, 3C protease cleavage, Superdex 75); not shown: His6, N-terminal, cleaved
B8: T2 EBNA2_(348-422) motif 3 mt (PTLEP to ATAEA) (domain or fragment)
chain: B1 chain with P67A, L69A, P71A
notes: EBNA2 of type 2 Epstein-Barr virus (AG876), amino acids 348-422, motif 3 PTLEP_(414-418) mutated to ATAEA; also called T2 EBNA2348-422 m3 mt; source: E. coli Rosetta 2 (DE3) pLysS, purified (HisPur cobalt resin, 3C protease cleavage, Superdex 75); not shown: His6, N-terminal, cleaved
B9: type 2 EBNA2 polypeptide T2 EBNA2_(348-412) (domain or fragment)
chain: SMPQLSPVVSLHQGQGPENSPTPGPSTAGPVCRVTPSATPDISPIHEPESSDSEEPPFLFPSDWY
notes: also called type 2 EBNA2_(348-412); source: E. coli Rosetta 2 (DE3) pLysS, purified (cobalt resin, 3C protease cleavage, Superdex 75); not shown: His6, N-terminal, cleaved
B10: type 2 EBNA2 motif 2 peptide (402-412) (peptide)
peptide: EPPFLFPSDWY
notes: source: synthetic peptide (Peptide Synthetics)
B11: type 2 EBNA2 motif 3 peptide (T2 EBNA2_(412-422)) (peptide)
peptide: YPPTLEPAELD
notes: EBNA2 of type 2 Epstein-Barr virus (AG876), residues 412-422, holding motif 3 (PTLEP 414-418); source: synthetic peptide (Peptide Synthetics)
B12: BS69 coiled-coil MYND domain (BS69_(CC-MYND), amino acids 480-602) (domain or fragment, human, UniProt Q15326 480-602, looked up)
chain: T1 sequence (looked up)
notes: BS69 (ZMYND11), human, amino acids 480-602 comprising the coiled-coil and MYND domains, amplified from pCI-BS69 (full length, isoform 1, 602 amino acids); Dimer by SEC-MALS; Expressed from pET49b+ as a GST-6xHis fusion; the tag was cleaved with 3C protease; also called BS69 CC-MYND domain; ZMYND11; source: E. coli Rosetta 2 (DE3) pLysS, purified (cobalt resin, 3C protease cleavage, GSTrap, …)

Data set [1] addresses T1, BS69 coiled-coil MYND domain …. Kind of data set: ITC; EBNA2 polypeptide (0.3 or 0.6 mM) titrated into 0.1 mM BS69_(CC-MYND) in the cell, 19 x 2.0 µl injections, 25°C, 20 mM Tris-HCl, 100 mM NaCl, 1 mM TCEP, pH 7.5; one-site (one event) model; n on monomer concentrations; mean of 3 experiments. The following applies: both partners purified. In general terms: Isothermal titration calorimetry measures the heat released or taken up as one component is titrated into another.

Data set [2] addresses B12. Kind of data set: ITC; EBNA2 polypeptide titrated into 0.1 mM BS69_(CC-MYND) in the cell, 19 x 2.0 μl injections, 25°C, 20 mM Tris-HCl, 100 mM NaCl, 1 mM TCEP, pH 7.5; one-site (one event) model; n calculated for monomeric proteins. The settings on record: both partners purified.
For data set [3], the target named is B12. The data set can be described thus: ITC; EBNA2 polypeptide (0.3 mM) titrated into 0.1 mM BS69_(CC-MYND) in the cell, 29 x 1.3 μl injections, 25°C, 20 mM Tris-HCl, 100 mM NaCl, 1 mM TCEP, pH 7.5; two-site (two event) model. The settings on record: both partners purified.
Data set [4] addresses B12. Kind of data set: ITC; 1 mM EBNA2 peptide titrated into 0.1 mM BS69_(CC-MYND) in the cell, 25°C, 20 mM Tris-HCl, 100 mM NaCl, 1 mM TCEP, pH 7.5; one-site model with n fixed to 1. The following applies: both partners purified.
Data set [5] concerns the molecule itself. The data set can be described thus: SEC-MALS; individual polypeptides, 5 mg/ml, Shodex KW403-4F column, 25°C, 20 mM Tris-HCl, 100 mM NaCl, 1 mM TCEP, pH 7.5.

B1 registered a dissociation constant Kd in data set [1] of 1010 nM. As for B2, in data set [2], the dH is -53.2 kcal/mol and the “stoichiometry N” value was 0.15. The “dH of the second binding event” value in data set [3] was -1.59 kcal/mol. On to B3, for which, in data set [2], the dH is -25.7 kcal/mol and the “stoichiometry N” value was 0.3.

For B4, in data set [1], binding was characterised by a dissociation constant (Kd) of 1900 nM and the “stoichiometry N” value was determined as 0.25. For the molecule B5, the binding result in data set [3] is listed as “binds”. Regarding B6, the binding result in data set [3] is “binds”.

As for B7, the “dH of the second binding event” value in data set [3] is -7.65 kcal/mol. With B8, in data set [1], the Kd was 590 nM and the “stoichiometry N” value was 0.31.

Regarding B9, in data set [2], the dissociation constant Kd was 1210 nM, the dH is -22.5 kcal/mol and the “stoichiometry N” value is 0.33. Take EAPILFPDDWY [type 1 EBNA2 motif 2 peptide (435-445)]: in data set [4], the equilibrium dissociation constant (Kd) was 47700 nM. Molecule B10 came in with a Kd in data set [4] of 176000 nM. The same measure, in the same setting: to B11 belongs 219000 nM.

For the molecule B12, the “stoichiometry N” value in data set [5] amounted to 2.
